Results taken from publication PMC11265280.

Legend:
[1] = biological target: MERS-CoV spike RBD (Middle East respiratory syndrome-related coronavirus) (UniProt K9N5Q8); conditions: cited from earlier work
[2] = biological target: soluble porcine DPP4-IgG1 (porcine) (UniProt P22411); test: SPR; BIAcore X-100, CM5 chip, room temperature; soluble DPP4-IgG1 immobilised by amine coupling; S1-RBD injected at 0.125-4.0 µM in 0.01 M HEPES, 0.15 M NaCl, 0.5% surfactant P20, 3 mM EDTA, pH 7.4; reference cell with BSA; steady-state affinity model
[3] = biological target: soluble murine DPP4-IgG1 (murine) (UniProt P28843); test: as above
[4] = biological target: PHEV spike S1 receptor-binding domain, Fc-tagged; test: co-immunoprecipitation, quantified band intensity; conditions: 293T cells; n = 3; parent: est. 100; read off a plot

Substance | percent of parent (% of RBD binding) [4] | also measured
DPP4 (from UniProt P27487) | – | Kd [1]: 17 nM
monomeric PHEV S1-RBD (SPR analyte) (domain or fragment) | – | Kd [2]: 174 nM; Kd [3]: 361 nM
murine dipeptidyl peptidase 4, GFP-tagged (from UniProt P28843) A294E; R295E | 95 | –
murine dipeptidyl peptidase 4, GFP-tagged (from UniProt P28843) A294T; R295T | 100 | –
murine dipeptidyl peptidase 4, GFP-tagged (from UniProt P28843) K267A | 110 | –
murine dipeptidyl peptidase 4, GFP-tagged (from UniProt P28843) N229Q | 350 | –
murine dipeptidyl peptidase 4, GFP-tagged (from UniProt P28843) N321Q | 250 | –
murine dipeptidyl peptidase 4, GFP-tagged (from UniProt P28843) Q344A | 120 | –
murine dipeptidyl peptidase 4, GFP-tagged (from UniProt P28843) R317A | 92 | –
murine dipeptidyl peptidase 4, GFP-tagged (from UniProt P28843) T336E | 100 | –
porcine dipeptidyl peptidase 4, GFP-tagged (from UniProt P22411) K267A | 84 | –
porcine dipeptidyl peptidase 4, GFP-tagged (from UniProt P22411) L294E; I295E | 110 | –
porcine dipeptidyl peptidase 4, GFP-tagged (from UniProt P22411) L294T; I295T | 82 | –
porcine dipeptidyl peptidase 4, GFP-tagged (from UniProt P22411) N229Q | 190 | –
porcine dipeptidyl peptidase 4, GFP-tagged (from UniProt P22411) N321Q | 170 | –
porcine dipeptidyl peptidase 4, GFP-tagged (from UniProt P22411) Q344A | 130 | –
porcine dipeptidyl peptidase 4, GFP-tagged (from UniProt P22411) R317A | 98 | –
porcine dipeptidyl peptidase 4, GFP-tagged (from UniProt P22411) R336E | 120 | –
